Assay results published in patent US20090203886A1 (OSAKA UNIVERSITY, published 2009).
Several values for one entry are separate records, joined by “and”; a condition that tells them apart may be missing. Identical values can stand only once.

T1: human CD20 antigen (human, UniProt P11836 1-297)
T1 construct: whole, on cells; also called CD20 on Raji cells; CD20/CHO cells
T1 sequence (looked up): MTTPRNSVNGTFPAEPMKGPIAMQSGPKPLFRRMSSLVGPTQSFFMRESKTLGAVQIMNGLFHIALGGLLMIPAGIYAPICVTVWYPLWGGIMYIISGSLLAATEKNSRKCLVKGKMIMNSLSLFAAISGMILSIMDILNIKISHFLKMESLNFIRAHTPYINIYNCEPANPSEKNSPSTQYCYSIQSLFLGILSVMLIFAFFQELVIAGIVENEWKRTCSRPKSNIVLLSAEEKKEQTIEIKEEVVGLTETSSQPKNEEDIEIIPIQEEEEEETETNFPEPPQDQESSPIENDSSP


Assays:
[1] = biological target: T1, human CD20 antigen; test: Scatchard analysis on Raji cells, FITC anti human Fc secondary (Example 3)
Protocol: (§1) The reaction solution was 1% BSA-PBS solution with a cell number of 5×10⁶ cells and was injected into a 1.5 ml tube to a final volume of 100 μl. Three samples for each test antibody were prepared and four tubes to which antibody was not added were prepared as samples for background calculations.
(§2) After the detecting step, an image was digitized using image analysis software Image Quant (Amersham Bioscience) and analyzed using Excel (Microsoft). Average values for the same test antibodies were calculated and the values for background calculation samples (when only reacting a cell with a FITC-labeled secondary antibody) were subtracted from the test antibody values. The background values derived for the FITC-labeled secondary antibody binding non-specifically to cells, the PBS solution and the plate are omitted. At the same time, a standard curve was prepared by measuring the amount of fluorescence of only FITC-labeled secondary antibodies at amounts of 0, 12.5, 25, 50, 75, 100, 125, and 150 ng per 100 μl. In this manner, the number of moles of secondary antibody binding to cells was calculated. Assuming that each primary antibody and the FITC-labeled secondary antibody react at a ratio of […], the amount of cell-bound primary antibody was calculated. Primary antibody in suspension was calculated by subtracting the bound amount from the added amount. Scatchard analysis was performed using these values in order to calculate a dissociation constant Kd.

[2] = biological target: T1, human CD20 antigen; test: Scatchard analysis on Raji cells (Example 3), average over the clones of the construct
Protocol: as §1, §2

[3] = biological target: T1, human CD20 antigen; test: cell-based or functional assay
[4] = biological target: T1, human CD20 antigen; test: cell-based or functional assay; remark: listed apart in the source

Row | Binder | Kd [1] | Kd [2] | also measured
1 | humanized 1K1791 antibody ss (SdrL x SdrH) (antibody, V domains shown, Kappa, gamma 1 construct; also called hz1791 ss; Ss020) VH: QIQLVQSGSELKKPGASVKVSCKASGYTFTNFGVNWVRQAPGKGLKWMGWINTYTGEPSYAQGFTGRFAFSLDASVSTAYLQISSLKAEDTATYFCTRRTNYYGTSYYYAMDYWGQGTTVTVSS VL: STVMTQSPDSLAVSLGERATINCKSSQSNSNDVAWYQQKPGQSPKVLIYFASNRYSGVPDRFSGSGYGTDFTLTISSLQAEDVAVYFCQQDYSSPLTFGAGTKLEIK | 24.4 nM and 21.8 nM | 23.1 nM | Apoptosis (5 ug/ml), DHL4 [3]: 133 relative, m2B8 = 100; Apoptosis (5 ug/ml), RAJI [3]: 202 relative, m2B8 = 100; Apoptosis (5 ug/ml), RCK8 [3]: 92 relative, m2B8 = 100; Apoptosis (5 ug/ml), Wil2-NS [3]: 108 relative, m2B8 = 100; CDC (10 ug/ml), RAJI [4]: 73 relative, c2B8 = 100; CDC (10 ug/ml), RC-K8 [4]: 108 relative, c2B8 = 100; CDC (10 ug/ml), SUDHL4 [4]: 61 relative, c2B8 = 100; CDC (10 ug/ml), WIL2NS [4]: 120 relative, c2B8 = 100
2 | humanized 1K1791 antibody sv (SdrL x VenH) (antibody, V domains shown, Kappa, gamma 1 construct; also called hz1791 sv; Sv015) VH: QIQLVQSGPELKKPGASVKISCKASGYTFTNFGVNWVKQAPGKGLKWMGWINTYTGEPSYADDFKGRFAFSLDASVSTAYLQISSLKAEDTSTYFCTRRTNYYGTSYYYAMDYWGQGTTVTVSS VL: STVMTQSPDSLAVSLGERATINCKSSQSNSNDVAWYQQKPGQSPKVLIYFASNRYSGVPDRFSGSGYGTDFTLTISSLQAEDVAVYFCQQDYSSPLTFGAGTKLEIK | 14.3 nM and 10.8 nM | 12.6 nM | –
3 | humanized 1K1791 antibody va (VenL x AbbH) (antibody, V domains shown, Kappa, gamma 1 construct; also called hz1791 va; Va016) VH: QIQLVQSGSELKKPGASVKVSCKASGYTFTNFGVNWVRQAPGKGLEWMGWINTYTGEPSYAQGFTGRFVFSLDASVSTAYLQISSLKAEDTATYFCTRRTNYYGTSYYYAMDYWGQGTTVTVSS VL: STVMTQSPDSLAVSLGERVTINCKASQSVSNDVAWYQQKPGQSPKVLIYFASNRYTGVPDRFSGSGYGTDFTFTISSVQAEDVAVYFCQQDYSSPLTFGAGTKLELK | 13.1 nM and 7.5 nM | 10.3 nM | –
4 | humanized 1K1791 antibody vf (VenL x FraH) (antibody, V domains shown, Kappa, gamma 1 construct; also called hz1791 vf; Vf029) VH: QIQLVQSGSELKKPGASVKVSCKASGYTFTNFGVNWVKQAPGKGLKWMGWINTYTGEPSYADDFKGRFAFSLDASASTAYLQISSLKAEDMATYFCTRRTNYYGTSYYYAMDYWGQGTTVTVSS VL: STVMTQSPDSLAVSLGERVTINCKASQSVSNDVAWYQQKPGQSPKVLIYFASNRYTGVPDRFSGSGYGTDFTFTISSVQAEDVAVYFCQQDYSSPLTFGAGTKLELK | 7.78 nM and 7.79 nM | 7.78 nM | –
5 | humanized 1K1791 antibody vs (VenL x SdrH) (antibody, V domains shown, Kappa, gamma 1 construct; also called hz1791 vs; Vs006) VH: QIQLVQSGSELKKPGASVKVSCKASGYTFTNFGVNWVRQAPGKGLKWMGWINTYTGEPSYAQGFTGRFAFSLDASVSTAYLQISSLKAEDTATYFCTRRTNYYGTSYYYAMDYWGQGTTVTVSS VL: STVMTQSPDSLAVSLGERVTINCKASQSVSNDVAWYQQKPGQSPKVLIYFASNRYTGVPDRFSGSGYGTDFTFTISSVQAEDVAVYFCQQDYSSPLTFGAGTKLELK | 8.8 nM and 11.9 nM | 10.3 nM | –
6 | humanized 1K1791 antibody vv (VenL x VenH) (antibody, V domains shown, Kappa, gamma 1 construct; also called hz1791 vv; Vv018) VH: QIQLVQSGPELKKPGASVKISCKASGYTFTNFGVNWVKQAPGKGLKWMGWINTYTGEPSYADDFKGRFAFSLDASVSTAYLQISSLKAEDTSTYFCTRRTNYYGTSYYYAMDYWGQGTTVTVSS VL: STVMTQSPDSLAVSLGERVTINCKASQSVSNDVAWYQQKPGQSPKVLIYFASNRYTGVPDRFSGSGYGTDFTFTISSVQAEDVAVYFCQQDYSSPLTFGAGTKLELK | 7.14 nM and 7.01 nM | 7.07 nM | –
